Assay results from patent US11112401B2, “Method for determining the cell mediated immune competence of a subject” (Oxford Immunotec Limited, priority 2016, dated 2021).

Test system: peripheral blood mononuclear cells (PBMCs)
Experiment: ELISPOT screening of healthy donor samples with 23 commercially available peptide pools
Type: cell-based, human
Details: healthy donors, responsive donors/donors tested in brackets

B1: EBNA-3a Protein: Epstein barr nuclear antigen-3A as protein (number of peptides N/A) (protein, UniProt P12977 1-944, looked up)
Epstein-Barr nuclear antigen 3: MDKDRPGPPALDDNMEEEVPSTSVVQEQVSAGDWENVLIELSDSSSEKEAEDAHLEPAQKGTKRKRVDHDAGGSAPARPMLPPQPDLPGREAILRRFPLDLRTLLQAIGAAATRIDTRAIDQFFGSQISNTEMYIMYAMAIRQAIRDRRRNPASRRDQAKWRLQTLAAGWPMGYQAYSSWMYSYTDHQTTPTFVHLQATLGCTGGRRCHVTFSAGTFKLPRCTPGDRQWLYVQSSVGNIVQSCNPRYSIFFDYMAIHRSLTKIWEEVLTPDQRVSFMEFLGFLQRTDLSYIKSFVSDALGTTSIQTPWIDDNPSTETAQAWNAGFLRGRAYGIDLLRTEGEHVEGATGETREESEDTESDGDDEDLPCIVSRGGPKVKRPPIFIRRLHRLLLMRAGKRTEQGKEVLEKARGSTYGTPRPPVPKPRPEVPQSDETATSHGSAQVPEPPTIHLAAQGMAYPLHEQHGMAPCPVAQAPPTPLPPVSPGDQLPGVFSDGRVACAPVPAPAGPIVRPWEPSLTQAAGQAFAPVRPQHMPVEPVPVPTVALERPVYPKPVRPAPPKIAMQGPGETSGIRRARERWRPAPWTPNPPRSPSQMSVRDRLARLRAEAQVKQASVEVQPPQLTQVSPQQPMEGPLVPEQQMFPGAPFSQVADVVRAPGVPAMQPQYFDLPLIQPISQGAPVAPLRASMGPVPPVPATQPQYFDIPLTEPINQGASAAHFLPQQPMEGPLVPEQWMFPGAALSQSVRPGVAQSQYFDLPLTQPINHGAPAAHFLHQPPMEGPWVPEQWMFQGAPPSQGTDVVQHQLDALGYTLHGLNHPGVPVSPAVNQYHLSQAAFGLPIDEDESGEGSDTSEPCEALDLSIHGRPCPQAPEWPVQEEGGQDATEVLDLSIHGRPRPRTPEWPVQGEGGQNVTGPETRRVVVSAVVHMCQDDEFPDLQDPPDEA
- Percentage Responsive (10 spot arbitrary cut off): 13% (19/137
